Tests used:
[1] = molecular target: T1, recombinant human NKG2D-Fc fusion protein (human, UniProt P26718 73-216); assay: ELISA, plate-bound recombinant human NKG2D-Fc, anti-human kappa-HRP/TMB
T1 construct: extracellular domain; also called NKG2D-Fc-biotin; not shown: human IgG1 Fc domain
T1 sequence (looked up): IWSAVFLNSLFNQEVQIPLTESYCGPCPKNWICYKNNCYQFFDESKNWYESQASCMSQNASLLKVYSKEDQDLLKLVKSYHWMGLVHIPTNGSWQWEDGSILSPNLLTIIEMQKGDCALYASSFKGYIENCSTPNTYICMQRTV
Description: (§1) The nucleic acid sequences of human, mouse or cynomolgus NKG2D ectodomains were fused with nucleic acid sequences encoding human IgG1 Fc domains and introduced into mammalian cells to be expressed. After purification, NKG2D-Fc fusion proteins were adsorbed to wells of microplates. After blocking the wells with bovine serum albumin to prevent non-specific binding, NKG2D-binding domains were titrated and added to the wells pre-adsorbed with NKG2D-Fc fusion proteins. Primary antibody binding was detected using a secondary antibody which was conjugated to horseradish peroxidase and specifically recognizes a human kappa light chain to avoid Fc cross-reactivity. 3,3′,5,5′-Tetramethylbenzidine (TMB), a substrate for horseradish peroxidase, was added to the wells to visualize the binding signal, whose absorbance was measured at 450 nm and corrected at […]. An NKG2D-binding domain clone, an isotype control or a positive control (comprising heavy chain and light chain variable domains selected from SEQ ID NOs:101-104, or anti-mouse NKG2D clones MI-6 and CX-5, eBioscience, San Diego, Calif.) was added to each well.

[2] = molecular target: T2, recombinant mouse NKG2D-Fc fusion protein (mouse; human, UniProt O54709 90-232); assay: ELISA, plate-bound recombinant mouse NKG2D-Fc, anti-human kappa-HRP/TMB
T2 construct: extracellular domain; also called Mouse NKG2D-Fc-biotin; not shown: human IgG1 Fc domain
T2 sequence (looked up): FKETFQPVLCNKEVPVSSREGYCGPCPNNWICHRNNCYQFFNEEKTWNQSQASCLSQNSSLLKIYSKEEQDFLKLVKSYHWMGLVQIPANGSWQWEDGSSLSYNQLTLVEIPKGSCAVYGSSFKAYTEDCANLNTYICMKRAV
Description: as §1

[3] = molecular target: T3, recombinant cynomolgus NKG2D-Fc fusion protein (cynomolgus; human, UniProt P61252 73-216); assay: ELISA, plate-bound recombinant cynomolgus NKG2D-Fc, anti-human kappa-HRP/TMB
T3 construct: extracellular domain; not shown: human IgG1 Fc domain
T3 sequence (looked up): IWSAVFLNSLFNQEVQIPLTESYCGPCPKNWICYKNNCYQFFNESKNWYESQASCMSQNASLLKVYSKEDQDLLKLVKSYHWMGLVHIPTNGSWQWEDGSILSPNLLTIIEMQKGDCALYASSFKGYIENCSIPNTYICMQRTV
Description: as §1

human DLL3-His = molecular target: T4, human DLL3-His (human, UniProt Q9NYJ7 27-492); assay: SPR (Biacore 8K), 37 C, antibody captured on anti-human Fc, DLL3-His 0.411-300 nM injected, 1:1 fit
T4 construct: also called hDLL3
T4 sequence: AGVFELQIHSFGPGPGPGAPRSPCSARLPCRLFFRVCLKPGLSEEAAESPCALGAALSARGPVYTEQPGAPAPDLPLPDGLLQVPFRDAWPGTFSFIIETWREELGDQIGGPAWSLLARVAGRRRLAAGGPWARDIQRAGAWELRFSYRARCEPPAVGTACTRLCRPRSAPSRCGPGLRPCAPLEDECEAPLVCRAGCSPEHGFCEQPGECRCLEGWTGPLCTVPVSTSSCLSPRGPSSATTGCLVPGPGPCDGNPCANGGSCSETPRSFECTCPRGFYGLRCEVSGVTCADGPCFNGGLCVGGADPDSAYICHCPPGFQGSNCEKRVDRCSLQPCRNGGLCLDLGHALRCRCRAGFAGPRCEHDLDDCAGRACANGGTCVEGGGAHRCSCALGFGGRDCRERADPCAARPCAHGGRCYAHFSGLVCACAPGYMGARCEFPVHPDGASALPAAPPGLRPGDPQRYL
Description: The kinetics of binding of different humanized variants and parental murine 5E7 antibody to human DLL3-His was studied by Surface Plasmon Resonance using a Biacore 8K instrument. Briefly, anti-hFc and anti-mFc IgG proteins were covalently immobilized onto different channels of CMS chip to allow simultaneous analysis of human and murine antibodies. m5E7 was captured on the anti-mouse Fc channel and humanized variants were captured on the anti-human Fc channel at a desired capture level of […] in HBS-EP+ buffer supplemented with 0.1% BSA. Three buffer blanks and human DLL3-His (analyte) at concentrations 0.411-300 nM (in three fold dilutions) were injected over the surface with captured murine or humanized 5E7 for 300 second association time and let dissociate for 600 second at a flow rate of 30 μL/min. The surfaces were subjected to regeneration with three 20-second pulses of 10 mM glycine pH 1.70 at a flow rate of 100 μL/min between every concentration of analyte. The experiment was conducted at 37° C. Data were double referenced and a 1:1 fit model was applied to the sensorgrams in the Biacore Insight Evaluation software.
The kinetic parameters of human DLL3-His binding to murine and humanized variants of 5E7 antibody variants were calculated and shown in Table 39.

[4] = molecular target: T5, recombinant human DLL3 (ELISA coat) (human, UniProt Q9NYJ7 27-492); assay: ELISA, plate coated with recombinant human DLL3 0.5 µg/ml, anti-mouse IgG-HRP
T5 sequence: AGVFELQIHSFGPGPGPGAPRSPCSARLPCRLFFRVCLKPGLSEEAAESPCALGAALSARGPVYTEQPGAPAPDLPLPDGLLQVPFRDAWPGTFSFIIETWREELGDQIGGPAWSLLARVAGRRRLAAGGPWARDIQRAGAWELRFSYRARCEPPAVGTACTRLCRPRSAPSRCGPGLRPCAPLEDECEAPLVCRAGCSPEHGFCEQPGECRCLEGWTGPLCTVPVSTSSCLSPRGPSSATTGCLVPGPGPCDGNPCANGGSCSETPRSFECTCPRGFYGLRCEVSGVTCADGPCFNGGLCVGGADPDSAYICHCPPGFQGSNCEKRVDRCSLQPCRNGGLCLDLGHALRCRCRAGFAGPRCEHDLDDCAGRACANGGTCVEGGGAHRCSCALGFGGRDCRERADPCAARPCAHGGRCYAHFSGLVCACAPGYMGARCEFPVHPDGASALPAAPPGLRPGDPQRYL
Experimental: (§2) To investigate the binding of anti-DLL3 antibodies to human DLL3, wells of high binding flat-bottom plates were coated with recombinant human DLL3 diluted to 0.5 μg/ml. To assess cross-reactivity of the antibodies to DLL1/DLL4, which are closely related family members to DLL3, plates were coated with recombinant human DLL1 diluted to 1 μg/ml, or human DLL4 diluted to 0.5 μg/ml. […] Binding was detected using anti-mouse IgG-HRP and 3,3′,5,5′-Tetramethylbenzidine (TMB) substrate. Signals were normalized to the corresponding positive control antibody.
Table 38 lists the calculated EC₅₀ based on the binding data from FIG. 24.

recombinant human DLL1 = molecular target: T6, recombinant human DLL1 (human, UniProt O00548 18-540, limits assumed); assay: ELISA, plate-bound recombinant human DLL1 (1 µg/mL), anti-mouse IgG-HRP/TMB, % of positive control max
T6 sequence (looked up): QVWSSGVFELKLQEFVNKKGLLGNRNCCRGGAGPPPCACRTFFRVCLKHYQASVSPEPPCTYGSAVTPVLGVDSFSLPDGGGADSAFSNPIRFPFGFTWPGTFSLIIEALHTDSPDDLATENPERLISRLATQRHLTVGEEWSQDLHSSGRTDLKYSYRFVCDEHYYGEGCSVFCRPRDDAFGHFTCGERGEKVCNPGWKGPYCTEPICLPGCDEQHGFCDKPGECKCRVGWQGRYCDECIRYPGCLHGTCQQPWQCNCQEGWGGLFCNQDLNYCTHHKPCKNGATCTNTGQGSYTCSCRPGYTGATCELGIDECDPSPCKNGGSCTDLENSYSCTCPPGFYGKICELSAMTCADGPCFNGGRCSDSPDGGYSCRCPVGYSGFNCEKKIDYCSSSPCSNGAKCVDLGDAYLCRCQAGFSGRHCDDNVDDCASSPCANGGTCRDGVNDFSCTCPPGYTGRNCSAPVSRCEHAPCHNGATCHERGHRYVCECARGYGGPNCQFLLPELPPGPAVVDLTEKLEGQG
Experimental: as §2

B1: ADI-27705 (antibody, V domains shown)
VH: QVQLQQWGAGLLKPSETLSLTCAVYGGSFSGYYWSWIRQPPGKGLEWIGEIDHSGSTNYNPSLKSRVTISVDTSKNQFSLKLSSVTAADTAVYYCARARGPWSFDPWGQGTLVTVSS
VL: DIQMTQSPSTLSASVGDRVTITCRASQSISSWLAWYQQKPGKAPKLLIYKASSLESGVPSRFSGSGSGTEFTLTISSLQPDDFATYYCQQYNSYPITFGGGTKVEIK
For B1, the “EC50 (read off the curve)” value [1] was ~0.6 nM, the binding result [2] was “binds” and the binding result [3] was “binds”.

B2: ADI-28226 (antibody, V domains shown)
VH: QVQLQQWGAGLLKPSETLSLTCAVYGGSFSGYYWSWIRQPPGKGLEWIGEIDHSGSTNYNPSLKSRVTISVDTSKNQFSLKLSSVTAADTAVYYCARARGPWSFDPWGQGTLVTVSS
VL: DIQMTQSPSTLSASVGDRVTITCRASQSISSWLAWYQQKPGKAPKLLIYKASSLESGVPSRFSGSGSGTEFTLTISSLQPDDFATYYCQQYGSFPITFGGGTKVEIK
notes: also called C26
With B2 the binding result [1] was “binds”, the binding result [2] was “binds” and the “EC50 (read off the curve)” value [3] was ~1 nM.

B3: humanized anti-DLL3 antibody h5E7-YD-A6 (antibody, V domains shown)
VH: QVQLVQSGAEVKKPGASVKVSCKASGFNIKDDYIHWVRQAPGQGLEWMGWIDSENGDTEYASKFQGRVTITADTSANTAYMELSSLRSEDTAVYYCATSSYWSYDLFVYWGQGTLVTVSS
VL: DVQMTQSPSSLSASVGDRVTITCKSSQSLLHSNGKTYLNWLQQKPGQAPKLLLYLVSKLESGVPSRFSGSGSGTDYTLTISSLQPEDFATYYCLQTTHLYTFGQGTKLEIK
notes: Expressed as IgG1 mAb: human IgG1 CH1-CH2-CH3 and human constant kappa; also called A6 variant
A Kd (human DLL3-His) of 1.1 nM, a koff (human DLL3-His) of 0.000434 s⁻¹ and a kon (human DLL3-His) of 396000 M⁻¹ s⁻¹ were found for B3 in this work.

B4: humanized anti-DLL3 antibody h5E7-YD-B5 (antibody, V domains shown)
VH: QVQLVQSGAEVKKPGASVKVSCKASGFNIKDDYIHWVRQAPGQGLEWMGWIDSENGDTEYASKFQGRVTITADTSANTAYMELSSLRSEDTAVYYCATSTYWSYDLFVYWGQGTLVTVSS
VL: DVQMTQSPSSLSASVGDRVTITCKSSQSLLHSNGKTYLNWLQQKPGQAPKLLLYLVSKLESGVPSRFSGSGSGTDYTLTISSLQPEDFATYYCLQTTHLYTFGQGTKLEIK
notes: Expressed as IgG1 mAb: human IgG1 CH1-CH2-CH3 and human constant kappa; also called B5 variant
A Kd (human DLL3-His) of 0.27 nM, a koff (human DLL3-His) of 0.00013 s⁻¹ and a kon (human DLL3-His) of 474000 M⁻¹ s⁻¹ were found for B4 in this work.

B5: humanized anti-DLL3 antibody h5E7-YD-C6 (antibody, V domains shown)
VH: QVQLVQSGAEVKKPGASVKVSCKASGFNIKDDYIHWVRQAPGQGLEWMGWIDSENGDTEYASKFQGRVTITADTSANTAYMELSSLRSEDTAVYYCATSEYYSYDLFVYWGQGTLVTVSS
VL: DVQMTQSPSSLSASVGDRVTITCKSSQSLLHSNGKTYLNWLQQKPGQAPKLLLYLVSKLESGVPSRFSGSGSGTDYTLTISSLQPEDFATYYCLQTTHLYTFGQGTKLEIK
notes: Expressed as IgG1 mAb: human IgG1 CH1-CH2-CH3 and human constant kappa; also called C6 variant
A Kd (human DLL3-His) of 3.35 nM, a koff (human DLL3-His) of 0.00137 s⁻¹ and a kon (human DLL3-His) of 409000 M⁻¹ s⁻¹ were found for B5 in this work.

B6: humanized anti-DLL3 antibody h5E7-YD-F3 (antibody, V domains shown)
VH: QVQLVQSGAEVKKPGASVKVSCKASGFNIKDDYIHWVRQAPGQGLEWMGWIDSENGDTEYASKFQGRVTITADTSANTAYMELSSLRSEDTAVYYCATSSYWSYDLLVYWGQGTLVTVSS
VL: DVQMTQSPSSLSASVGDRVTITCKSSQSLLHSNGKTYLNWLQQKPGQAPKLLLYLVSKLESGVPSRFSGSGSGTDYTLTISSLQPEDFATYYCLQTTHLYTFGQGTKLEIK
notes: Expressed as IgG1 mAb: human IgG1 CH1-CH2-CH3 and human constant kappa; also called F3 variant
A Kd (human DLL3-His) of 1.29 nM, a koff (human DLL3-His) of 0.000405 s⁻¹ and a kon (human DLL3-His) of 312000 M⁻¹ s⁻¹ were found for B6 in this work.

B7: ADI-27724 (antibody, V domains shown)
VH: QVQLQQWGAGLLKPSETLSLTCAVYGGSFSGYYWSWIRQPPGKGLEWIGEIDHSGSTNYNPSLKSRVTISVDTSKNQFSLKLSSVTAADTAVYYCARARGPWSFDPWGQGTLVTVSS
VL: not shown
With B7 the “EC50 (read off the curve)” value [1] was ~10 nM, the “EC50 (read off the curve)” value [2] was ~8 nM and the “EC50 (read off the curve)” value [3] was ~10 nM.

B8: ADI-27741 (antibody, V domains shown)
VH: QVQLQQWGAGLLKPSETLSLTCAVYGGSFSGYYWSWIRQPPGKGLEWIGEIDHSGSTNYNPSLKSRVTISVDTSKNQFSLKLSSVTAADTAVYYCARARGPWSFDPWGQGTLVTVSS
VL: DIQMTQSPSTLSASVGDRVTITCRASQSIGSWLAWYQQKPGKAPKLLIYKASSLESGVPSRFSGSGSGTEFTLTISSLQPDDFATYYCQQSNSYYTFGGGTKVEIK
B8: binds [1]; binds [2]; binds [3].

B9: anti-DLL3 antibody clone 10F5 (antibody, V domains shown)
VH: QLQLVQSGPELMRPGETVKISCKASGYTFTTYGMNWVKQAPGKGLKWVGWINTYSGVPTYADDFKGRFAFSLESSASTAFLQINNLKDEDTATYFCARFGNYGFDCWGQGTTLTVSS
VL: DIVMTQSPSSLSVSAGEKVTMSCKSSQSLLNSGNQKNYLAWYQQKPGQPPKLLIYGASTRESGVPDRFTGSGSGTDFTLTISSVQAEDLAVYYCQNDHIYPYTFGGGTKLEIK
notes: Murine antibody from a mouse hybridoma
B9 was tested, and the EC50 [4] was 0.64 nM and the binding result (recombinant human DLL1) was “no binding”.
